Measurements reported in patent US20260207759A1, “COMPOSITION OF CD40-BINDING MOLECULE AND PHARMACEUTICAL USE THEREOF” (SUZHOU SUNCADIA BIOPHARMACEUTICALS CO., LTD., priority 2022, published 2026).

Biological target: CD40 (Homo sapiens, UniProt P25942)
Assay: Inhibition of CD40 reporter gene cell activity (HEK-Blue CD40L cells), humanized antibodies
Type: cell-based
Set-up: host or cells: HEK-Blue CD40L cells
Experimental: HEK-Blue CD40L cells were purchased from Invivogen (Cat. #hkb-cd40). The cells were stably transfected with the human CD40 gene and the NF-kB-mediated SEAP genome. The activation level of the CD40 signaling pathway can be characterized by measuring the amount of secreted SEAP in the supernatant using QUANTI-Blue, the substrate of SEAP. In the assays, the inhibitory effects of the CD40 antagonistic antibodies on the CD40L-induced HEK-Blue CD40L cell activation were measured, and the in vitro cell activity of the CD40 antagonistic antibodies was assessed based on IC50.
HEK-Blue CD40L cells were cultured in a DMEM medium containing 10% FBS, 100 μg/mL Normocin, 100 μg/mL Zeocin, and 30 µg/mL Blasticidin, with 2-3 passages a week. HEK-Blue CD40L cells were plated at 5E4 cells/well into a 96-well cell culture plate (the medium was DMEM containing 10% FBS and 100 μg/mL Normocin) and incubated overnight. […] CD40L-his (R&D, 2706-CL-025) and anti-His antibody (R&D, MAB050-500) were added, and the plate was incubated overnight. After cell centrifugation, 20 μL of the cell supernatant was transferred to a new 96-well white plate, and 180 μL of QUANTI-Blue substrate solution was added. […] The absorbance at 620 nm was measured with an Envision microplate reader, and IC50 values were calculated and used to assess the in vitro cell activity of the CD40 antagonistic antibodies.

CD40, sequence (P25942 21-277): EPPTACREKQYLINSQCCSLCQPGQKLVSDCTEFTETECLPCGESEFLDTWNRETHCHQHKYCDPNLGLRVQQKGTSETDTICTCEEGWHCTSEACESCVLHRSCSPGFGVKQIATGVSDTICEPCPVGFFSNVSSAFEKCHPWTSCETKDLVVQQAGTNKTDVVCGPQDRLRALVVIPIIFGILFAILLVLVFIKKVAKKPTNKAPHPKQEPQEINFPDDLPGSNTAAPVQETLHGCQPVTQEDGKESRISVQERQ

CFZ533: anti-CD40 antagonistic antibody CFZ533 (i.e., iscalimab), positive control, variable regions from U.S. Pat. No. 8,277,810B
IC50 (Experiment 1): 0.36 nM
IC50 (Experiment 2): 0.35 nM
